Drawing on patent US20080124327A1 (published 2008), this text covers Kd for two molecules.

By Kd is commonly meant a measure of binding affinity in units of concentration.

The assay has as its target T1, Recombinant human CD44/Fc (R&D Systems, Minneapolis, Minn., USA) (human, UniProt P16070 21-220).
T1 construct: Purchased reagent, amine-coupled to a CM5 chip at about 500 RU; also called rhCD44; recombinant CD44; not shown: Fc part of the purchased fusion
In words: SPR (Biacore T100); rhCD44/Fc amine-coupled to a CM5 chip, antibody injected at 0.67 to 667 nM, 1:1 model.

T1 sequence (P16070 21-220): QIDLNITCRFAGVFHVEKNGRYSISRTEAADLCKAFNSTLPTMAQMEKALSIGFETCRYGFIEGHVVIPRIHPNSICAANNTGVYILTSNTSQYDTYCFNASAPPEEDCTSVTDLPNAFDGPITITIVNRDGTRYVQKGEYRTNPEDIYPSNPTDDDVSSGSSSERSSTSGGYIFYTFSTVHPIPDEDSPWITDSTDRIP

B1: (hu)ARH460-16-2 variant HV1/KV1 (antibody, V domains shown)
VH: EVQLVESGGGLVQPGGSLRLSCAASGFDFSRYWMSWVRQAPGKGLVWVGEVNPDSTSINYTPSLKDRFTISRDNAKNTLYLQMNSLRAEDTAVYYCTRPNYYGSRYHYYAMDYWGQGTLVTVSS
VL: DIQMTQSPSSLSASVGDRVTITCRASQDINNYLNWYQQKPGKAPKLLIYYTSRLHSGVPSRFSGSGSGTDFTFTISSLQPEDIATYYCQQGSTLPFTFGQGTKLEIK
notes: Humanized variable regions cloned into pANT18 (human IgG1 constant region, human kappa constant region); also called (hu)ARH460-16-2 variant 1; huARH460-16-2-variant 1
For B1, the Kd was found to be 6.32 nM.

B2: H460-16-2 (murine monoclonal antibody produced by the hybridoma deposited with the ATCC as accession number PTA-4621) (antibody, V domains shown)
VH: EVKLLESGGGLVQPGGSLKLSCATSGFDFSRYWMSWVRQAPGKGLEWIGEVNPDSTSINYTPSLKDQFIISRDNAKNTLDLQMSKVSSEDTALYYCTRPNYYGSRYHYYAMDYWGQGTSVTVSS
VL: DIQMTQTTSSLSVSLGDRVTINCRASQDINNYLNWYQQKPDGTVKLLIYYTSRLHSGVPSRFSGSGSGTDFSLTISNLEKEDVATYFCQQGSTLPFTFGSGTKLEIK
On to B2, for which the Kd is 4.19 nM.
